Paper PMC5941273, “DNA-binding miniproteins based on zinc fingers. Assessment of the interaction using nanopores† †Electronic supplementary information (ESI) available. See DOI: 10.1039/c7sc05441f”

T1: gaga (GAGA Cys2-His2 zinc finger peptide) (UniProt Q08605 337-367)
T1 chain: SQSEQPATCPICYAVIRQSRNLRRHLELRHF

B1: cg·GAG (dsDNA)
DNA 1: CGCGTCATCAGCGAGAGCGC
DNA 2: GCGCTCTCGCTGATGACGCG
B2: AT·GAG (= cat·AT·GAG) (dsDNA)
DNA 1: CGCGTCATAATTGAGAGCGC
DNA 2: GCGCTCTCAATTATGACGCG

What was measured:
gaga-Hk = gaga-Hk (UniProt Q08605); assay: fluorescence anisotropy; settings: Zn2+, EMSA: 18 mM Tris-HCl pH 7.5, 90 mM KCl, 1.8 mM MgCl2, 0.2 mM TCEP, 9% glycerol, 0.11 mg/mL BSA, 2.2% NP-40, 0.02 mM ZnCl2, 20 C, 75 nM DNA, FA: 20 mM Tris-HCl …
Hk-gaga = Hk-gaga (UniProt Q08605); assay: fluorescence anisotropy; settings: Zn2+, EMSA: 18 mM Tris-HCl pH 7.5, 90 mM KCl, 1.8 mM MgCl2, 0.2 mM TCEP, 9% glycerol, 0.11 mg/mL BSA, 2.2% NP-40, 0.02 mM ZnCl2, 20 C, 75 nM DNA, FA: 20 mM Tris-HCl …
gaga-Hk-gaga = gaga-Hk-gaga (UniProt Q08605); assay: fluorescence anisotropy; settings: no calf thymus DNA; Zn2+; EMSA: 18 mM Tris-HCl pH 7.5, 90 mM KCl, 1.8 mM MgCl2, 0.2 mM TCEP, 9% glycerol, 0.11 mg/mL BSA, 2.2% NP-40, 0.02 mM ZnCl2, 20 C, 75 nM DNA; FA: 20 mM Tris-HCl …
[1] = target: T1, gaga (GAGA Cys2-His2 zinc finger …); assay: EMSA; Zn2+; 1000 nM; EMSA: 18 mM Tris-HCl pH 7.5, 90 mM KCl, 1.8 mM MgCl2, 0.2 mM TCEP, 9% glycerol, 0.11 mg/mL BSA, 2.2% NP-40, 0.02 mM ZnCl2, 20 C, 75 nM DNA; FA: 20 mM Tris-HCl pH 7.5, 100 mM NaCl, 0.02 mM ZnCl2, 20 C, 25 nM DNA; nanopore: 100 mM NaCl, 0.02 mM ZnCl2, 20 mM Tris-HCl pH 7.5, 22 C

Chain of gaga-Hk (Q08605 other isoform, or with tags, fused parts or gaps): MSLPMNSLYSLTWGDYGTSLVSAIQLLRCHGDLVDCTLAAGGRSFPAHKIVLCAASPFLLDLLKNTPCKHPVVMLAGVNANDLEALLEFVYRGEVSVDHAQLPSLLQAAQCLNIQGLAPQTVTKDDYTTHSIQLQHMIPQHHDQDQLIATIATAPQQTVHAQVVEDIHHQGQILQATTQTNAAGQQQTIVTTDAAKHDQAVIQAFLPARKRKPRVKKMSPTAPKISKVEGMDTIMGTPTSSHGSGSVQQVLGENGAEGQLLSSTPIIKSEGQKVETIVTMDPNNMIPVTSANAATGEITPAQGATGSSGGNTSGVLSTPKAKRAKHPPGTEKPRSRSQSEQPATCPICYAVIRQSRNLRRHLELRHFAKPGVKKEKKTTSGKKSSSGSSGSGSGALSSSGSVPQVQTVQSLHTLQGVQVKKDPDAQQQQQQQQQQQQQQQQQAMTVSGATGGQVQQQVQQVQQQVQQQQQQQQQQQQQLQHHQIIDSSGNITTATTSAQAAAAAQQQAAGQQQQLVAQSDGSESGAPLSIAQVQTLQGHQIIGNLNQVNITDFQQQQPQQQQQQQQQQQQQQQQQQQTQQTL
Chain of Hk-gaga (Q08605 other isoform, or with tags, fused parts or gaps): as above
Chain of gaga-Hk-gaga (Q08605 other isoform, or with tags, fused parts or gaps): as above

| Molecule | Kd (gaga-Hk; no calf thymus DNA) [nM] | binding result [1] | further results |
| --- | --- | --- | --- |
| CGCGTCATAATTGAGAGCGC (double strand) [TMR-AT·GAG] | 41 | – | Kd (gaga-Hk; 50 uM bp calf thymus DNA): 58 nM; Kd (Hk-gaga; 50 uM bp calf thymus DNA): 92 nM; Kd (Hk-gaga; no calf thymus DNA): 44 nM |
| CGCGTCATCAGCGAGAGCGC (double strand) [TMR-cg·GAG] | 100 | – | – |
| GAGCTCTCAATTGAGAGCGCG (double strand) [TMR-CTC·AT·GAG] | – | – | Kd (gaga-Hk-gaga): 35 nM |
| B1 | – | no binding | – |
| B2 | – | no binding | – |
